Laboratory results reported in patent publication US20160289305A1.

Tests used:
[1] = target: ΔRSC3; assay: method not given
[2] = target: JR-CSF gp120 D279A (HIV-1) (UniProt P20871); assay: cell-based or functional assay
[3] = target: JR-CSF gp120 N276A (HIV-1) (UniProt P20871); assay: cell-based or functional assay

VRC-PG04b (antibody)
fold less binding than to RSC3 [1]: > 100 fold

VRC-PG-04 (antibody)
neutralization potency compared to wildtype, JRCSF pseudovirus entry [2]: < 10%

VRC01 (antibody)
neutralization potency, JR-CSF pseudovirus [3]: 4 fold
